This passage reports IC50 and Kd results from the Immune Epitope Database (IEDB).

Where only a bound is given, the exact number is not on record here.

The term IC50 denotes the concentration that gives 50% inhibition. Read a high IC50 as a need for much substance. A word on the Kd: it is the constant that tells how readily two partners part at equilibrium. Low values mean a tighter complex, high ones a looser complex.

The target in test [1] is HLA-A*02:01. Briefly: IEDB peptide-MHC binding, purified MHC/competitive/fluorescence; ≥ and ≤ were set here for values at or beyond the usual limits of such assays. To be noted: source organism: Zaire ebolavirus.
For test [2], the target named is HLA-B*08:01. The test is described as above. To be noted: source organism: Zaire ebolavirus.
In test [3] the target is HLA-A*11:01. The description is as above. The conditions noted are these: source organism: Zaire ebolavirus.
The target in test [4] is HLA-A*01:01. Briefly: IEDB peptide-MHC binding, purified MHC/direct/fluorescence; filed as Kd, often an IC50 or EC50 that approximates it; ≥ and ≤ were set here for values at or beyond the usual limits of such assays.
The target of test [5] is HLA-A*02:01. Described as above.
Test [6] concerns the target HLA-A*03:01. The test is described as above.
Test [7] deals with HLA-A*11:01. The description is as above.
Test [8] deals with HLA-A*23:01. The test is described as above.
Test [9] concerns the target HLA-A*24:02. The description is as above.
Test [10] deals with HLA-A*24:03. The description is as above.
Test [11] addresses HLA-A*26:01. The test is described as above.
Test [12] has as its target HLA-A*31:01. The test is described as above.
Test [13] has as its target HLA-A*68:02. The test is described as above. To be noted: source organism: Influenza A virus.
In test [14] the target is HLA-A*69:01. The test is described as above.
Test [15] deals with HLA-B*07:02. The description is as above.
For test [16], the target named is HLA-B*08:01. Described as above.
The target of test [17] is HLA-B*15:01. The description is as above.
The target in test [18] is HLA-B*27:05. Described as above.
The target of test [19] is HLA-B*40:01. Described as above.
Test [20] has as its target HLA-B*44:02. The test is described as above.
Test [21] concerns the target HLA-B*46:01. The test is described as above.
Test [22] addresses HLA-B*57:01. Described as above. To be noted: source organism: Influenza A virus.
The target in test [23] is HLA-B*58:01. The test is described as above.
Test [24] has as its target HLA-A*26:02. As to the kind of experiment: IEDB peptide-MHC binding, purified MHC/competitive/fluorescence; filed as Kd, often an IC50 or EC50 that approximates it; ≥ and ≤ were set here for values at or beyond the usual limits of such assays. The conditions noted are these: source organism: Influenza A virus (A/ruddy turnstone/NJ/60/1985(N9)).
Test [25] concerns the target HLA-B*15:17. Described as above. To be noted: source organism: Influenza A virus (A/ruddy turnstone/NJ/60/1985(N9)).
The target in test [26] is HLA-B*18:01. Described as above. The conditions noted are these: source organism: Influenza A virus (A/ruddy turnstone/NJ/60/1985(N9)).
Test [27] concerns the target HLA-B*08:02. As to the kind of experiment: IEDB peptide-MHC binding, purified MHC/direct/fluorescence; filed as Kd, often an IC50 or EC50 that approximates it; ≥ and ≤ were set here for values at or beyond the usual limits of such assays.
In test [28] the target is HLA-B*18:01. The description is as above. To be noted: source organism: Influenza A virus (A/Viet Nam/HN/2004(H5N1)).
The target in test [29] is HLA-B*35:01. The description is as above. The conditions noted are these: source organism: Vibrio cholerae.
For test [30], the target named is HLA-B*15:09. The description is as above. To be noted: source organism: Influenza A virus(A/swine/Shandong/fNY/2003(H9N2)).
Setting [31] is: source organism: Influenza A virus.
Setting [32] is: source organism: Influenza A virus (A/tiger/Thailand/CU-LV/2004(H5N1)).
[33] abbreviates: source organism: Influenza A virus (A/Puerto Rico/8/34/Mount Sinai(H1N1)).
[34] abbreviates: source organism: Influenza A virus (A/Viet Nam/HN/2004(H5N1)).
The mark [35] stands for this setting: source organism: Influenza A virus(A/swine/Henan/3/2004(H9N2)).
[36] abbreviates: source organism: Vibrio cholerae.
[37] abbreviates: source organism: H9N2 subtype Influenza A virus (A/swine/Korea/S81/2004(H9N2)).
Setting [38] is: source organism: Influenza A virus (A/equine/New York/1/1999(H3N8)).

For HILQKTERG, the concentration for half-maximal inhibition (IC50) is at least 99.6 µM in [1] and at least 365 µM in test [2].
Take EVKKRDGVK: the IC50 in test [3] was 66.4 µM; in [2], at least 211 µM.
As for DWSGYSGSF, the Kd was at least 20 µM in test [4] (setting [31]); at least 20 µM in test [5] (setting [31]); at least 20 µM in [6] (setting [31]); at least 20 µM in test [7] (setting [31]); 0.175 µM in test [8] (setting [31]); 0.0875 µM in test [9] (setting [31]). Moreover, the Kd was 0.072 µM in test [10] (setting [32]); at least 20 µM in test [11] (setting [32]); at least 20 µM in test [12] (setting [31]); at least 20 µM in test [13]; at least 20 µM in test [14] (setting [31]); at least 20 µM in test [15] (setting [31]). Besides, the Kd is at least 20 µM in test [16] (setting [31]); at least 10 µM in test [17] (setting [33]); at least 20 µM in test [18] (setting [31]); at least 20 µM in test [19] (setting [31]); at least 20 µM in test [20] (setting [31]); at least 20 µM in test [21] (setting [31]). In addition, the Kd was at least 20 µM in test [22]; at least 20 µM in test [23] (setting [31]); 3.45 µM in [24]; 1.24 µM in test [25]; at least 20 µM in test [26].
Consider QYEKDPDEL, for which the Kd in [8] (source organism: Amur virus) came out at 11.5 µM; in test [9] (source organism: Amur virus), 4.65 µM; in test [10] (source organism: Amur virus), 13 µM.
Regarding RRVRDNMTK, the Kd in test [4] (setting [34]), in [5] (setting [34]), in [6] (setting [34]), in test [7] (setting [34]), in [9] (setting [34]) and in [11] (setting [35]) was at least 20 µM in each case. Further, the Kd in test [14] (setting [34]), in [15] (setting [34]), in test [16] (setting [34]), in test [27] (setting [35]), in [17] (setting [34]) and in test [28] was at least 20 µM each time. The Kd in test [18] (setting [33]) is 0.45 µM; in test [19] (setting [34]), at least 20 µM; in test [20] (setting [34]) it was at least 20 µM; in test [21] (setting [34]), at least 20 µM; in [23] (setting [34]), at least 20 µM.
Take DTDISQLHH: the Kd was 0.358 µM in test [4] (setting [36]); at least 20 µM in test [5] (setting [36]); at least 20 µM in [6] (setting [36]); at least 20 µM in test [7] (setting [36]); at least 20 µM in [10] (setting [36]); at least 20 µM in test [11] (setting [36]). The Kd in [12] (setting [36]), in test [14] (setting [36]), in test [15] (setting [36]), in [16] (setting [36]), in [17] (setting [36]) and in [18] (setting [36]) was at least 20 µM in each case. Moreover, the Kd was 0.542 µM in test [29], at least 20 µM in test [19] (setting [36]), at least 20 µM in [20] (setting [36]) and 2.68 µM in test [23] (setting [36]).
For YHMMKDEPV, the values for the IC50 in [1] and in test [2] were 42.3 µM and at least 178 µM, respectively.
Consider KAVRGDLNF, for which the Kd in [4] (setting [37]), in test [5] (setting [37]), in [6] (setting [37]), in test [7] (setting [37]), in test [9] (setting [37]) and in [12] (setting [37]) was at least 20 µM throughout. Besides, the Kd in test [14] (setting [37]) was at least 20 µM; in test [15] (setting [37]), at least 20 µM; in test [16] (setting [37]), at least 20 µM; in test [27] (source organism: Influenza A virus(A/swine/Shandong/fZC/2003(H9N2))), at least 20 µM; in test [17] (setting [33]), 0.929 µM; in test [18] (setting [37]), at least 20 µM. Further, the Kd is at least 20 µM in [19] (setting [37]), at least 20 µM in [20] (setting [37]) and 0.093 µM in [23] (setting [37]).
In the case of RELVRKTRF, the Kd in test [4] (setting [38]), in test [5] (setting [38]), in test [6] (setting [38]), in test [7] (setting [38]), in [9] (setting [38]) and in test [11] (source organism: Influenza A virus(A/swine/Shandong/fNY/2003(H9N2))) was at least 20 µM in each case. Moreover, the dissociation constant Kd in test [12] (setting [38]) was at least 20 µM; in test [14] (setting [38]), at least 20 µM; in test [15] (setting [38]), at least 20 µM; in test [16] (setting [38]) it was at least 20 µM; in test [17] (setting [33]), 1.58 µM; in test [30], at least 20 µM. Also, the equilibrium dissociation constant (Kd) in [18] (setting [38]) is at least 20 µM; in test [19] (setting [33]) it was 0.35 µM; in test [21] (setting [38]), at least 20 µM; in test [23] (setting [38]), at least 20 µM.
